The source of these data is patent publication US20230064378A1 (Eli Lilly, published 2023).

The target in assay [1] is T1, human IL-4Rα on cells (human, UniProt P24394 26-825).
T1 sequence: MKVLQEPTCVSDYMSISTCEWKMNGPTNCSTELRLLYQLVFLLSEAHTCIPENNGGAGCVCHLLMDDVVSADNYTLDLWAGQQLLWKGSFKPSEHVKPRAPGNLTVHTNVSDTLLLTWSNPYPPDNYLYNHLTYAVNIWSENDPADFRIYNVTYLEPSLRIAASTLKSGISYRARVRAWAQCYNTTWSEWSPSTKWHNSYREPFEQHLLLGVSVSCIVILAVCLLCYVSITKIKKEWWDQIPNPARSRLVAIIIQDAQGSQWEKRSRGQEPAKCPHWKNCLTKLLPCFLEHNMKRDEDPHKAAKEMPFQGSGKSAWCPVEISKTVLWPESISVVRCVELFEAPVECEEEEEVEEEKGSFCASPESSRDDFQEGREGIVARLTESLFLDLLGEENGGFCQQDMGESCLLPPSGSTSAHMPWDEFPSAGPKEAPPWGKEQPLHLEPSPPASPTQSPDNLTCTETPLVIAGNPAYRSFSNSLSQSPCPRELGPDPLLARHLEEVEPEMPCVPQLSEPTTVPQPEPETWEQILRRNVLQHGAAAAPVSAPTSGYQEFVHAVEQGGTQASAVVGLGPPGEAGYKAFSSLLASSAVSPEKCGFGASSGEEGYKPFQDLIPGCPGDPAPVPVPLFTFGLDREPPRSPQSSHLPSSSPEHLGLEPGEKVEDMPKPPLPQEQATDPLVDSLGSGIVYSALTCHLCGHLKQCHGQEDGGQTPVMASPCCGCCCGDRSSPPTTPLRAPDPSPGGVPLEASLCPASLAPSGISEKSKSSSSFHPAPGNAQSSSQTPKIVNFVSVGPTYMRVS
As to the kind of experiment: cell-based or functional assay.

Assay [2] concerns the target T1, human IL-4Rα on cells. As to the kind of experiment: flow cytometry staining of primary human B cells (Th2 cells also confirmed IL-4Rα+). (In flow cytometry, cells or beads pass a laser one at a time.)
From the text: Flow cytometry staining was used to assess cell purity on a BD LSRFortessa Cell Analyzer.
The target in assay [3] is T1, human IL-4Rα on cells. As to the kind of experiment: cell-based or functional assay. This is another data set of the same source.
Assay [4] concerns the target T1, human IL-4Rα on cells. As to the kind of experiment: cell-based or functional assay. The source holds these as a separate data set.
Assay [5] concerns the target T1, human IL-4Rα on cells. Nature of the assay: cell-based or functional assay. The source holds these as a separate data set.
The target in assay [6] is T1, human IL-4Rα on cells. Nature of the assay: cell-based or functional assay. This is another data set of the same source.
The target in another assay is T2, Human C1q (human, UniProt P02745 23-245; P02746 28-253; P02747 29-245).
T2 construct: Bought (MS Biomedical); also called complement component C1q
As to the kind of experiment: ELISA, antibody coated, C1q detected with anti-C1q-HRP. (An ELISA detects its analyte on a solid surface through an enzyme-linked reagent.)

T2 sequence (P02745 23-245 limits assumed, chain 1 of 3): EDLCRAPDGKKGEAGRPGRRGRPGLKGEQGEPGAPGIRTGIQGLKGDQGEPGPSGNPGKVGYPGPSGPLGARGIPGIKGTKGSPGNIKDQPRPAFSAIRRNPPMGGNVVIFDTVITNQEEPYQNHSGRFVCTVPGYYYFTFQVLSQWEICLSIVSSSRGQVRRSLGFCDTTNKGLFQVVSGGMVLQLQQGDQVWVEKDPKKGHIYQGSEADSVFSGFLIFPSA
T2 sequence (P02746 28-253 limits assumed, chain 2 of 3): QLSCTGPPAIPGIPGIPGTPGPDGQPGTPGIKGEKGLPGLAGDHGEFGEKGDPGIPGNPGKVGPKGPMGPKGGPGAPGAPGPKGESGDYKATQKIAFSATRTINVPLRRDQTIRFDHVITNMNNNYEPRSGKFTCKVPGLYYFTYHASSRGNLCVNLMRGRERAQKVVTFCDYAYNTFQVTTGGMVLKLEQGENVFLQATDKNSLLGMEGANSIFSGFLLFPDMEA
T2 sequence (P02747 29-245 limits assumed, chain 3 of 3): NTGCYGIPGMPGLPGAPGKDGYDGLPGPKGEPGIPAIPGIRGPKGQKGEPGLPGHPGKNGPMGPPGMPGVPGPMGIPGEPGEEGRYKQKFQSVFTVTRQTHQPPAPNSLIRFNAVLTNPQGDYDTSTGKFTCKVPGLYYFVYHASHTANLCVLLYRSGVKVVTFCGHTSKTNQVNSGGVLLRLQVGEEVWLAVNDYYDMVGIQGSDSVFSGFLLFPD
Method for Human C1q: The binding of the exemplified anti-IL-4Rα antibodies to human C1q was evaluated by ELISA. 96-well microplates were coated with 100 μL/well of each exemplified antibody diluted in DPBS (Dulbecco's HyClone) from 10 μg/mL to 0.19 g/mL, and incubated overnight at 4° C. The coating reagent was removed, plates were blocked with 200 μL/well casein blocking buffer (Thermo) and incubated for 2 hours at room temperature (RT). Plates were washed 3 times with wash buffer (1×TBE with 0.05% Tween 20), and 10 μg/mL Human C1q (MS Biomedical) diluted in casein blocking reagent is added at 100 μL/well and incubated for 3 hours at RT. Humanized IgG1 and humanized IgG4P isotype control antibodies were used as positive and negative controls respectively. Plates were then washed three times with wash buffer and 100 L/well of a 1:800 times dilution of Sheep anti-human C1q-HRP (Abcam #ab46191) in casein blocker was added and incubated for 1 hour at RT. The plates were then washed 6 times with wash buffer, and 100 μL/well of TMB Substrate (Pierce) was added to each well and incubated for 7 minutes. 100 μL/well of 1 N HCl was added to stop the reaction. Optical density was immediately measured at 450 nm on a colorimetric microplate reader. Data was analyzed using SoftMax Pro 7.1 Data Acquisition and Analysis Software.

B1: 5F3 IgG4PAA (antibody, V domains shown)
VH: QVQLVESGGGLVQPGGSLRLSCAASGFTFSISSMNWVRQAPGKGLEWVSYISRATGAIYYADSVKGRFTISRNNAKNSLYLQMNSLRDEDTAVYYCAREPVFDYWGQGTLVTVSS
VL: DIQMTQSPSAMSASVGDRVTITCRASQGISNYLAWFQQKPGKVPTRLIYAASSLQSGVPSRFSGSGSGTEFTLTISSLQPEDFATYYCLQHNSYPRTFGQGTKVEIKR
As to B1, in the assay with human IL-4Rα on cells [1], the “IL-4 IC50 (nM), IL-4 induced SEAP activity in HEK-Blue cells” value (“IL-4 IC50 (nM)” below) is 3.45 nM and the “IL-13 IC50 (nM), IL-13 induced SEAP activity in HEK-Blue cells” value (from here on “IL-13 IC50 (nM)”) is more than 35 nM.

B2: 8660 IgG4P 124C/378C (antibody, V domains shown)
VH: QVQLVESGGGLVQPGGSLRLSCAASGFTFSHSSMNWVRQAPGKGLEWVSYISRATGAVYYADSVKGRFTISRDNAKNSLYLQMNSLRDEDTAVYYCAREPVFDYWGQGTLVTVSS
VL: DIQMTQSPSAMSASVGDRVTITCRASQGISNYLAWFQQKPGKVPTRLIYAASSLQSGVPSRFSGSGSGTEFTLTISSLQPEDFATYYCLQWSSYPRTFGQGTKVEIKR
For the molecule B2, in the assay with human IL-4Rα on cells [1], the “IL-4 IC50 (nM)” value stood at 0.03 nM and the “IL-13 IC50 (nM)” value is 0.24 nM.

B3: 5559-Alexa Fluor-647 (antibody, V domains shown)
VH: QVQLVESGGGLVQPGGSLRLSCVASGFTFSHSSMNWVRQAPGKGLEWVSYISRATGAVYYADSVKGRFTISRDNAKNSLYLQMNSLRDEDTAVYYCAREPVFDYWGQGTLVTVSS
VL: DIQMTQSPSAMSASVGDRVTITCRASQDISNYLAWFQQKPGKVPTRLIYAASSLQSGVPSRFSGSGSGTEFTLTISSLQPEDFATYYCLQWSSYPRTFGQGTKVEIK
modifications: Antibody conjugated to Alexa Fluor 647; the attachment sites are not stated and the letters do not carry the dye.
Regarding B3, in the assay with human IL-4Rα on cells [2], the binding result is reported as “binds”.

B4: 5559 IgG4P KRQ 124C/378C (antibody)
heavy: QVQLVESGGGLVQPGGSLRLSCVASGFTFSHSSMNWVRQAPGKGLEWVSYISRATGAVYYADSVKGRFTISRDNAKNSLYLQMNSLRDEDTAVYYCAREPVFDYWGQGTLVTVSSASTKGPCVFPLAPCSRSTSESTAALGCLVKDYFPEPVTVSWNSGALTSGVHTFPAVLQSSGLYSLSSVVTVPSSSLGTKTYTCNVDHKPSNTKVDKRVESKYGPPCPPCPAPEFLGGPSVFLFPPKPKDTLMISRTPEVTCVVVDVSQEDPEVKFNWYVDGVEVHNAKTKPREEQFNSTYRVVSVLTVLHQDWLNGKEYKCKVSNKGLPSSIEKTISKAKGQPREPQVYTLPPSREEMTKNQVSLTCLVKGFYPSDICVEWESNGQPENNYKTTPPVLDSDGSFFLYSRLTVDKSRWQQGNVFSCSVMHEALHNHYTQKSLSLSLG
light: DIQMTQSPSAMSASVGDRVTITCRASQDISNYLAWFQQKPGKVPTRLIYAASSLQSGVPSRFSGSGSGTEFTLTISSLQPEDFATYYCLQWSSYPRTFGQGTKVEIKRTVAAPSVFIFPPSDEQLKSGTASVVCLLNNFYPREAKVQWKVDNALQSGNSQESVTEQDSKDSTYSLSSTLTLSKADYEKHKVYACEVTHQGLSSPVTKSFNRGEC
For B4, in the assay with human IL-4Rα on cells [1], the “IL-4 IC50 (nM)” value was 0.08 nM and the “IL-13 IC50 (nM)” value was determined as 0.67 nM. Also, in the assay with human IL-4Rα on cells [3], the “Inhibition of IL-4 induced STAT6 phosphorylation, B cells IC50” value stood at 0.05 µg/mL and the “Inhibition of IL-4 induced STAT6 phosphorylation, T cells IC50” value worked out at 0.07 µg/mL. Further, the “Inhibition of IL-13 induced STAT6 phosphorylation in B cells IC50” value with human IL-4Rα on cells [4] came to 0.06 µg/mL. In addition, the “Inhibition of IL-4 induced B cell proliferation IC50” value with human IL-4Rα on cells [5] was found to be 1.32 nM. Besides, in the assay with human IL-4Rα on cells [6], the “Inhibition of CD23 expression on myeloid cells, IL-4 induced IC50” value was found to be 18.2 nM and the “Inhibition of CD23 expression on myeloid cells, IL-13 induced IC50” value worked out at 5.37 nM. Moreover, the binding result with Human C1q is given as “no binding”.

B5: 5559 IgG1A 124C/378C (antibody)
heavy: not shown
light: DIQMTQSPSAMSASVGDRVTITCRASQDISNYLAWFQQKPGKVPTRLIYAASSLQSGVPSRFSGSGSGTEFTLTISSLQPEDFATYYCLQWSSYPRTFGQGTKVEIKRTVAAPSVFIFPPSDEQLKSGTASVVCLLNNFYPREAKVQWKVDNALQSGNSQESVTEQDSKDSTYSLSSTLTLSKADYEKHKVYACEVTHQGLSSPVTKSFNRGEC
On to B5, for which the binding result with Human C1q is recorded as “no binding”.
